Patent publication US20160060347A1 (MorphoSys, published 2016)

Legend:
[1] = target: T1, ECL3 peptide aa273-295, BSA-coupled (human; bovine, coupled to carrier protein BSA; C-terminal cysteine introduced to enable coupling); assay: ELISA, coated peptide-BSA, IgG1
T1 construct: also called CXCR2 aa273-295 BSA; peptides representing the extracellular domain 3
Method: (§1) 384-well Maxisorp plates (Nunc; Cat. #460518) were coated with respective CXCR2 and control peptides coupled either to BSA or Transferrin (TRF) at 1-5 μg/mL and incubated o/n at 4° C. […] After three washing steps, antibodies were added at 5-10 μg/mL and titrated in some experiments. Antibodies were incubated 1 h at room temperature and plates were subsequently washed. Binding of anti-CXCR2 antibodies was detected by using alkaline phosphatase-conjugated anti-human IgG, (Dianova, Cat #109-055-097). AttoPhos fluorescence substrate (Roche, Cat #1484281) was added according to instructions of the manufacturer and fluorescence was measured (excitation at 430 nm, emission at 535 nm) using a microplate reader.

[2] = target: T2, hu_CXCR2_N-term (1-17)-BSA (human; bovine, coupled to carrier protein BSA; C-terminal cysteine introduced to enable coupling); assay: ELISA, coated peptide-BSA, IgG1
T2 construct: Synthetic linear peptide chemically coupled to the carrier; also called CXCR2_aa1-17_BSA; CXCR2 aa1-17 BSA
Method: as §1

[3] = target: T3, N-terminal peptide aa1-48, BSA-coupled (human; bovine, coupled to carrier protein BSA; C-terminal cysteine introduced to enable coupling); assay: ELISA, coated peptide-BSA, IgG1
T3 construct: also called CXCR2 aa1-48 BSA
Method: as §1

human CXCR2 [4] = target: T4, human CXCR2 (human, UniProt P25025 1-360); assay: FACS, CXCR2 CHO Flp-In cells, IgG1
T4 construct: Expressed on Flp-In CHO cells (FACS, Fab-ZAP, ADCC, CDC) or on bought PathHunter CHO cells (beta-arrestin assay); the construct in the PathHunter cells is not described; also called chemokine receptor CXCR2; CXCR2 CHO Flp-In cells
T4 sequence: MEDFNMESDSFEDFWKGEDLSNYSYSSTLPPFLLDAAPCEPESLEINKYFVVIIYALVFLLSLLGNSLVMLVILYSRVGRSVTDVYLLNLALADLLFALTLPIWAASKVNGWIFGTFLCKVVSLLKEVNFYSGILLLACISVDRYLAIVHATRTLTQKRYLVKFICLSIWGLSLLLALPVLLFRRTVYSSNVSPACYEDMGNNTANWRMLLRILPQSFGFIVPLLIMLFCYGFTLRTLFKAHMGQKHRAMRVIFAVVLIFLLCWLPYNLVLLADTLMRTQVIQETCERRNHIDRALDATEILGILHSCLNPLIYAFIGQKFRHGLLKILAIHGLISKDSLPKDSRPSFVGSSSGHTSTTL
Method: (§2) Human CXCR2-expressing Flp-In™ CHO cells were harvested at ˜80% confluence washed once with PBS (Gibco, Cat #14190-094) and detached using Versene (Invitrogen, Cat #15040-033). Subsequently, cells were counted and centrifuged at 250×g for 5 min at 4° C. Afterwards, cells were diluted in Superblock (Thermo Fisher Perbio Science, Cat #37515) to a cell concentration of 2E+05-1E+06/mL and 100 μL/well were transferred to 96-well microtiter plate (Nunc, Cat#163320). Cells were once centrifuged, supernatant discarded and antibodies added at 1 μg/mL (unless stated otherwise), incubated for 1 h at 4° C. and washed twice with FACS buffer (PBS/3% FCS/0.02% NaN3). Binding of anti-CXCR2 antibodies was detected by incubation of Phycoerythrin-conjugated anti-human IgG (Dianova, Cat #109-116-097) for 1 h at 4° C. Samples were subsequently measured using FACS Array (Becton Dickinson).

[5] = target: T1, ECL3 peptide aa273-295, BSA-coupled; assay: ELISA, coated peptide-BSA, IgG
Method: as §1

[6] = target: T2, hu_CXCR2_N-term (1-17)-BSA; assay: ELISA, coated peptide-BSA, IgG
Method: as §1

[7] = target: T3, N-terminal peptide aa1-48, BSA-coupled; assay: ELISA, coated peptide-BSA, IgG
Method: as §1

human CXCR2 [8] = target: T4, human CXCR2; assay: FACS, CXCR2 CHO Flp-In cells, IgG
Method: as §2

Measured: binding result

T1 sequence (peptide, as listed by the source limits assumed, chain 1 of 2): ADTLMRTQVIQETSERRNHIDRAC
T1 sequence (P02769 25-607 limits assumed, chain 2 of 2): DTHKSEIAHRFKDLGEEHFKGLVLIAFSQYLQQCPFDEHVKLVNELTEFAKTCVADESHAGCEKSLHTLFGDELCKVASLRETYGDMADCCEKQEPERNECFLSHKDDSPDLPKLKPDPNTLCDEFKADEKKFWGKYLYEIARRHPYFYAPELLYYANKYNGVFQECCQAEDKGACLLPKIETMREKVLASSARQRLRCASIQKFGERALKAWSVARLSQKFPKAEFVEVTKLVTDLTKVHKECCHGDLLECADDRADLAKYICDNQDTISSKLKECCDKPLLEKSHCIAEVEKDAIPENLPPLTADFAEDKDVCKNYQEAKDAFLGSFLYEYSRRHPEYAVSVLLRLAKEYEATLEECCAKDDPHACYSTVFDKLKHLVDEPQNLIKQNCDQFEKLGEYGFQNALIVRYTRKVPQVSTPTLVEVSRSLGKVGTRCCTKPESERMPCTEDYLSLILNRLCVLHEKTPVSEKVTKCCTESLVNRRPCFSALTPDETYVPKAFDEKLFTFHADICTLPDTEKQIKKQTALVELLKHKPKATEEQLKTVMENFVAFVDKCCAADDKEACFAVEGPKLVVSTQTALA
T3 sequence (P02769 25-607 limits assumed): as the sequence (P02769 25-607 limits assumed, chain 2 of 2) above
T2 sequence (P02769 25-607 limits assumed): as the sequence (P02769 25-607 limits assumed, chain 2 of 2) above

B1: CX2-Mab #1.2 (antibody, IgG1, V domains shown)
VH: QVQLVQSGAEVKKPGSSVKVSCKASGGTFSSYAISWVRQAPGQGLEWMGGIIPIVGEAKYAQKFQGRVTITADESTSTAYMELSSLRSEDTAVYYCARDSSGYDGYYAFAYWGQGTQVTVSS
VL: DIVLTQPPSVSGAPGQRGTISCSGSSSNIGSSSVNWYQQLPGTAPKLLIYRNNQRPSGVPDRFSGSKSGTSASLAITGLQAEDEADYYCATADQRGIVFGGGTKLTVLG
binds: [1] | [2] | [3] | human CXCR2 [4]

B2: CX2-Mab #8 (antibody, IgG1, V domains shown)
VH: QVQLVQSGAEVKKPGESLKISCKGSGYSFTNYWIAWVRQMPGKGLEWMGIIDPSNSDTRYSPSFQGQVTISADKSISTAYLQWSSLKASDTAMYYCARGRYYGFFDYWGQGTLVTVSS
VL: DIVLTQPPSVSGAPGQRVTISCSGSSSNIGSTYVSWYQQLPGTAPKLLIYRNNNRPSGVPDRFSGSKSGTSASLAITGLQAEDEADYYCQVRALGTSSVVFGGGTKLTVLG
binds: [5] | [6] | [7] | human CXCR2 [8]

B3: CX2-Mab #7 (antibody, IgG1, V domains shown)
VH: QVQLLESGGGLVQPGGSLRLSCAASGFTFSRYWMSWVRQAPGKGLEWVSVISYSGSETYYADSVKGRFTISRDNSKNTLYLQMNSLRAEDTAVYYCARGRAYGYFDPWGQGTLVTVSS
VL: DIVLTQPPSVSGAPGQRVTISCSGSSSNIGKKTVSWYQQLPGTAPKLLIYRNNQRPSGVPDRFSGSKSGTSASLAITGLQAEDEADYYCQSTDSTTEIVFGGGTKLTVLG
binds: [5] | [6] | [7] | human CXCR2 [8]
